Results on 3 substances are retold here after publication PMC5985294.

The target in the experiment is Neutrophil elastase (NE), active, human (human) (UniProt P08246).
UniProt P08246, sequence (P08246 30-267): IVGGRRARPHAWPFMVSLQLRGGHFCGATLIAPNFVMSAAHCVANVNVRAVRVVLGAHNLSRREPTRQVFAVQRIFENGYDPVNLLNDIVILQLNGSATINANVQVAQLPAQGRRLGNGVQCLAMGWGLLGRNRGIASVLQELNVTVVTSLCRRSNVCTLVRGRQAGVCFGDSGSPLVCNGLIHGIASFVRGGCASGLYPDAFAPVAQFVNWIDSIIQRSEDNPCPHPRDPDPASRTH
In the case of “MMP-9-treated SLPI, MMP-9/SLPI molar ratio 1/5 (from UniProt P03973 26-41; P03973 42-96; P03973 97-132)”, the IC50 of inhibition of NE (5 nM) degradation of fluorogenic elastase substrate V (MeOSuc-Ala-Ala-Pro-Val-AMC), after 30 min pre-incubation at 37°C turned out to be 76.3 nM and the IC50 of inhibition of NE (5 nM) gelatinolytic activity, DQ-gelatin degradation, with 50 µM SB-3CT came to 51.2 nM.

As to “MMP-9-treated SLPI, MMP-9/SLPI molar ratio 1/20 (from UniProt P03973 26-96; P03973 97-132)”, the IC50 of inhibition of NE (5 nM) degradation of fluorogenic elastase substrate V (MeOSuc-Ala-Ala-Pro-Val-AMC), after 30 min pre-incubation at 37°C is 28.9 nM and the IC50 of inhibition of NE (5 nM) gelatinolytic activity, DQ-gelatin degradation, with 50 µM SB-3CT was 5.24 nM.

Regarding “Secretory leukocyte peptidase inhibitor (SLPI), intact (from UniProt P03973 26-132) (natural protein)”, the IC50 of inhibition of NE (5 nM) degradation of fluorogenic elastase substrate V (MeOSuc-Ala-Ala-Pro-Val-AMC), after 30 min pre-incubation at 37°C is 8.71 nM and the IC50 of inhibition of NE (5 nM) gelatinolytic activity, DQ-gelatin degradation, with 50 µM SB-3CT was found to be 0.97 nM.
